The source of these data is patent publication US20120308564A1 (published 2012).

Assay [1] addresses T1, human IL-18 (human, UniProt Q14116 37-193).
T1 construct: also called Interleukin-18
T1 sequence (looked up): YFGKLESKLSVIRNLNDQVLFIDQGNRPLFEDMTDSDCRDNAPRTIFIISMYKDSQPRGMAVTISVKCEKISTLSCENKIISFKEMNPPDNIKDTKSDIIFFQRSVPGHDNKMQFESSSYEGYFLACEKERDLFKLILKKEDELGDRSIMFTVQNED
Kind of assay: method not given; the same paragraph names BIAcore and FORTEbio as possible methods and mentions 25 C. For orientation: In SPR one partner is held on a chip, and binding of the other changes the refractive index at the surface.

The target in assay [2] is T1, human IL-18. Kind of assay: cell-based or functional assay.

B1: H1L2 (SEQ ID NO:7 and SEQ ID NO:11) (antibody, human IgG1, kappa, V domains shown)
VH: QVQLVQSGAEVKKPGASVKVSCKVSGEISTGYYFHWVRQAPGKGLEWMGRIDPEDDSTKYAERFKDRVTMTEDTSTDTAYMELSSLRSEDTAVYYCTTWRIYRDSSGRPFYVMDAWGQGTLVTVSS
VL: DIQMTQSPSSVSASVGDRVTITCLASEDIYTYLTWYQQKPGKAPKLLIYGANKLQDGVPSRFSGSGSGTDYTLTISSLQPEDFATYYCLQGSKFPLTFGQGTKLEIKR
notes: also called anti-IL-18 antibody H1L2
As usually defined, the Kd is a measure of binding affinity in units of concentration. High values mean weaker binding, low ones tighter binding. B1: the equilibrium dissociation constant (Kd) with human IL-18 [1] was 0.0303 nM. In the assay with human IL-18 [2], the “IL-6 gene expression in IL-18 stimulated ex-vivo human whole blood (Affymetrix microarray), IL-18 50 ng/ml + H1L2 1 ug/ml vs IL-18 alone” value was determined as 7 fold decrease; the “IRS2 gene expression in IL-18 stimulated ex-vivo human whole blood (microarray), IL18+H1L2 vs IL18 alone” value turned out to be 1.4 fold increase; the “JAK2 gene expression in IL-18 stimulated ex-vivo human whole blood (microarray), IL18+H1L2 vs IL-18 alone” value was determined as 2.1 fold decrease; the “MCP-1 gene expression in IL-18 stimulated ex-vivo human whole blood (microarray), IL18+H1L2 vs IL18 alone” value was found to be 2.6 fold decrease. Moreover, in the assay with human IL-18 [2], the “MCP-4 gene expression in IL-18 stimulated ex-vivo human whole blood (microarray), IL18+H1L2 vs IL18 alone” value amounted to 2.5 fold decrease; the “PPAR gamma gene expression in IL-18 stimulated ex-vivo human whole blood (microarray), IL18+H1L2 vs IL18 alone” value amounted to 1.7 fold increase; the “SOCS3 gene expression in IL-18 stimulated ex-vivo human whole blood (microarray), IL18+H1L2 vs IL-18 alone” value stood at 1.9 fold decrease; the “STAT3 gene expression in IL-18 stimulated ex-vivo human whole blood (microarray), IL18+H1L2 vs IL-18 alone” value is 1.6 fold decrease.
